Measured values taken from US20120178124A1, “STEROL SIDE CHAIN-CLEAVING ENZYME PROTEIN AND USE THEREOF” (MITSUBISHI CHEMICAL CORPORATION, priority 2009, published 2012).

Legend:
Format in all cases: biochemical
[1] = Thermostability test of cell-free extract; details: for Relative activity: 140 hr versus 0 hr
Description: (§1) To 20 ml of the cell suspension prepared in (2) above, 680 μl of X10 Bug Buster (Novagen), 20 μl of Benzonase (Novagen), and 2 ml of 40 mg/ml lysozyme were added, and the obtained mixture was then shaken at 30° C. for 30 minutes to disintegrate the cells. Thereafter, the reaction solution was centrifuged to obtain the cell-free extract. The obtained, approximately 20 ml of cell-free extract was dialyzed against 1 L of Buffer R (20 mM KPB pH 7.4, 20% glycerol) two times, and the deposited precipitate was then removed by centrifugation. The cell-free extract obtained as a supernatant herein was used in the subsequent experiments.
The cell-free extract prepared in (3) above was conserved at various temperature for 140 hours. The conservation temperature was set at 6° C., 10° C., 20° C., 30° C., 37° C., or 45° C. Using the enzyme protein solution before conservation and the sample obtained after conservation for 140 hours, conversion of 4-cholesten-3-one was carried out, and stability was examined. The reaction solution was prepared, such that 1 ml of the buffer comprised an enzyme protein solution of CYP204A1 or CYPSS that had been conserved at each temperature, 64 μg/ml spinach-derived ferredoxin, 0.1 U/ml spinach-derived ferredoxin reductase protein, 3 U/ml glucose dehydrogenase, 60 mM glucose, 50 μg/ml 4-cholesten-3-one, 2 mM NADH, and 2 mM NADPH. The reaction was initiated by addition of NADH and NADPH, and it was carried out at 200 rpm at 15° C. for 4 hours. Thereafter, 1.5 ml of ethyl acetate was added to the reaction solution to terminate the reaction, and extraction was carried out. Then, extraction was carried out again with 0.75 ml of ethyl acetate. The obtained ethyl acetate phase was solidified using an evaporator, and the residue was then dissolved in 200 μl of methanol. Thereafter, progesterone was detected by HPLC analysis. […] In particular, when the cell-free extract was conversed at 20° C. for 140 hours, CYP204A1 maintained 47% of its activity and CYPSS maintained 39% of its activity.

[2] = pH stability test of cell-free extract; details: for Relative activity: 140 hr versus 0 hr, 6° C.; for Activity 0 hr: immediately after mixing, reaction 15° C., 4 hours, pH 7.5
Description: as §1
0.5 ml of the cell-free extract prepared in (3) above was mixed with 0.5 ml of 50 mM buffer having various pH values, pH was then measured, and the mixture was then conserved at 6° C. for 140 hours. […] Using the prepared cell-free extracts having various pH values, conversion of 4-cholesten-3-one was carried out. The reaction was carried out, immediately after the enzyme protein solution was mixed with buffers having various pH values and after the mixed solution was conserved for 140 hours, so as to examine the stability. The reaction solution was prepared, such that 1 ml of the buffer comprised an enzyme protein solution of CYP204A1 or CYPSS having various pH values, 64 μg/ml spinach-derived ferredoxin, 0.1 U/ml spinach-derived ferredoxin reductase protein, 3 U/ml glucose dehydrogenase, 60 mM glucose, 50 μg/ml 4-cholesten-3-one, 2 mM NADH, and 2 mM NADPH. To the reaction solution, 562 μl of 200 mM Tris-HCl was added, so as to adjust the reaction solution to pH 7.5. It was confirmed that the reaction solution maintained pH 7.5, even though enzyme protein solutions having various pH values were added thereto. The reaction was initiated by addition of NADH and NADPH, and it was carried out at 200 rpm at 15° C. for 4 hours. Thereafter, 1.5 ml of ethyl acetate was added to the reaction solution to terminate the reaction, and extraction was carried out. Then, extraction was carried out again with 0.75 ml of ethyl acetate. The obtained ethyl acetate phase was solidified using an evaporator, and the residue was then dissolved in 200 μl of methanol. Thereafter, progesterone was detected by HPLC analysis.

[3] = Analysis of the optimum temperature, conversion of 4-cholesten-3-one by cell-free extract; details: Tris-HCl pH 7.5, 4 hours, 4-cholesten-3-one to progesterone
Description: as §1
Using the cell-free extract prepared in (3) above, conversion of 4-cholesten-3-one was carried out at […]. The reaction solution was prepared, such that 1 ml of the buffer comprised 215 pmol/ml CYP204A1 or 391 pmol/ml CYPSS, 64 μg/ml spinach-derived ferredoxin, 0.1 U/ml spinach-derived ferredoxin reductase protein, 3 U/ml glucose dehydrogenase, 60 mM glucose, 50 μg/ml 4-cholesten-3-one, 2 mM NADH, and 2 mM NADPH. Tris-HCl was added to the reaction solution so as to adjust it to pH 7.5. The reaction was initiated by addition of NADH and NADPH, and it was carried out at 200 rpm for 4 hours, under temperature conditions of 10° C., 15° C., 20° C., 25° C., or 30° C. Thereafter, 1.5 ml of ethyl acetate was added to the reaction solution to terminate the reaction, and extraction was carried out. Then, extraction was carried out again with 0.75 ml of ethyl acetate. The obtained ethyl acetate phase was solidified using evaporator, and the residue was then dissolved in 200 μl of methanol. Thereafter, progesterone was detected by HPLC analysis. The enzyme protein activity for conversion of 4-cholesten-3-one to progesterone under various temperature conditions is shown in Table 1.

[4] = Kinetics analysis of CYP204A1 and CYPSS; details: 4-cholesten-3-one 100 μg/ml (so in the source)

B1: CYP204A1: P450scc from Novosphingobium aromaticivorans ATCC 700278, amino acid sequence SEQ ID NO: 23 (protein)
chain: MARAATAAGNGLPLLDGGVPLLGHLAQFFRDPVSVLKRGYRSKGRLFAMNFMGQRMNVMLGPEHNRFFFEETDKLLSIRESMPFFLKMFSPEFYSFAEMDEYLRQRSIIMPRFKAASMKQYVPVMVEESLNLVERLGEEGEFDLIPTLGPVVMDIAAHSFMGREFHEKLGHEFFELFRDFSGGMEFVLPLWLPTPKMVKSQRAKRKLHAILQSWIDKRRAAPLDPPDFFQTMIETKYPDGRPVPDEIIRHLILLLVWAGHETTAGQVSWALADLLQNPDYQKVLRGEISSLLGGSDGRDLGWEQAVAMEKMDLALRETERLHPVAYMLSRKARADIERDGYVIRKGEFVLLAPSVSHRMEETFRNPDAYDPERFNPANPDAQIESNSLIGFGGGVHRCAGVNFARMEMKVLVAILLQNFDMELMDEVRPIAGASTYWPAQPCRVRYRRRKLDGSEAGADMAALARAAGCPAHT
modifications: Novosphingobium aromaticivorans
- Activity 140 hr ([1]; conserved at 6° C. for 140 hours): 4.5 µg/mL
- Relative activity ([1]; conserved at 6° C.): 85%
- Activity 140 hr ([1]; conserved at 10° C. for 140 hours): 3.9 µg/mL
- Relative activity ([1]; conserved at 10° C.): 74%
- Activity 140 hr ([1]; conserved at 20° C. for 140 hours): 2.5 µg/mL
- Activity 140 hr ([1]; conserved at 30° C. for 140 hours): 0.5 µg/mL
- Relative activity ([1]; conserved at 30° C.): 9%
- Activity 140 hr ([1]; conserved at 37° C. for 140 hours): 0 µg/mL
- Relative activity ([1]; conserved at 37° C.): 0%
- Activity 140 hr ([1]; conserved at 45° C. for 140 hours): 0 µg/mL
- Relative activity ([1]; conserved at 45° C.): 0%
- Activity 0 hr ([1]; enzyme protein solution before conservation, reaction 15° C., 4 hours): 5.3 µg/mL
- Relative activity ([2]; AcB pH 6.0): 24%
- Activity 140 hr ([2]; AcB pH 6.0, conserved at 6° C. for 140 hours): 0.5 µg/mL
- Activity 0 hr ([2]; AcB pH 6.0): 2.1 µg/mL
- Relative activity ([2]; KPB pH 6.7): 53%
- Activity 140 hr ([2]; KPB pH 6.7, conserved at 6° C. for 140 hours): 1 µg/mL
- Activity 0 hr ([2]; KPB pH 6.7): 1.9 µg/mL
- Relative activity ([2]; KPB pH 7.2): 65%
- Activity 140 hr ([2]; KPB pH 7.2, conserved at 6° C. for 140 hours): 1.3 µg/mL
- Activity 0 hr ([2]; KPB pH 7.2): 2 µg/mL
- Relative activity ([2]; KPB pH 7.6): 70%
- Activity 140 hr ([2]; KPB pH 7.6, conserved at 6° C. for 140 hours): 1.4 µg/mL
- Activity 0 hr ([2]; KPB pH 7.6): 2 µg/mL
- pH at which most stable ([2]; KPB, conserved at 6° C. for 140 hours): 7.6
- Relative activity ([2]; TES pH 7.5): 68%
- Activity 140 hr ([2]; TES pH 7.5, conserved at 6° C. for 140 hours): 1.5 µg/mL
- Activity 0 hr ([2]; TES pH 7.5): 2.2 µg/mL
- Relative activity ([2]; Tris pH 7.4): 62%
- Activity 140 hr ([2]; Tris pH 7.4, conserved at 6° C. for 140 hours): 1.3 µg/mL
- Activity 0 hr ([2]; Tris pH 7.4): 2.1 µg/mL
- Relative activity ([2]; Tris pH 8.1): 50%
- Activity 140 hr ([2]; Tris pH 8.1, conserved at 6° C. for 140 hours): 1 µg/mL
- Activity 0 hr ([2]; Tris pH 8.1): 2 µg/mL
- Relative activity ([2]; Tris pH 8.9): 35%
- Activity 140 hr ([2]; Tris pH 8.9, conserved at 6° C. for 140 hours): 0.7 µg/mL
- Activity 0 hr ([2]; Tris pH 8.9): 2 µg/mL
- Specific activity ([3]; 10° C.): 507 g/h/mol
- Specific activity ([3]; 15° C.): 698 g/h/mol
- Specific activity ([3]; 20° C.): 719 g/h/mol
- Specific activity ([3]; 25° C.): 550 g/h/mol
- Specific activity ([3]; 30° C.): 285 g/h/mol
- enzyme protein activity in comparison with that at 10 μM 4-cholesten-3-one [4]: 67%
